This is an account of results in patent US20160046725A1 (PIERRE FABRE MEDICAMENT, published 2016).

For assay [1], the target named is T1, recombinant human Mer-Fc protein (R and D Systems, cat N° 891-MR) (human, UniProt Q12866 26-499, limits assumed).
T1 construct: Bought construct; also called rhMer-Fc; rh-Mer-Fc; not shown: Fc portion of the bought fusion
T1 sequence (looked up): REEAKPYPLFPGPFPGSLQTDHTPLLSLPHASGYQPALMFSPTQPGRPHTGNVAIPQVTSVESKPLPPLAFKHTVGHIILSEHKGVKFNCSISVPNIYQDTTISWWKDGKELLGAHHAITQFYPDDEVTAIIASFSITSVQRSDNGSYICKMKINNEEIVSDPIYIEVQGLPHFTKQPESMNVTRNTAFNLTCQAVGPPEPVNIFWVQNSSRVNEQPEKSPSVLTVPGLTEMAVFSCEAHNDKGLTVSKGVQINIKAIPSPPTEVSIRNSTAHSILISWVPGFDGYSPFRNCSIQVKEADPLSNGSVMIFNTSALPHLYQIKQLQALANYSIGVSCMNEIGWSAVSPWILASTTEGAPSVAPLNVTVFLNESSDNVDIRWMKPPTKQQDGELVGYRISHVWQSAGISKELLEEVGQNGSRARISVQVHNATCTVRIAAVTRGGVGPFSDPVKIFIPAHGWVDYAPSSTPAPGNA
The assay can be described thus: ELISA on coated protein. How it is done: (§1) Briefly, the recombinant human Axl-Fc (R and D systems, cat N° 154AL/CF), rhDtk (R and D Systems, cat N° 859-DK) or rh-Mer-Fc (R and D Systems, cat N° 891-MR) proteins were coated overnight at 4° C. to Immulon II 96-well plates and, after a 1 h blocking step with a 0.5% gelatine solution, 110D7, 1003A2, 1024G11 purified antibodies were added, respectively, for an additional 1 h at 37° C. at starting concentration of 5 μg/ml (3.33 10⁻⁸M). Then ½ serial dilutions were done over 12 columns. Then plates were washed and a goat anti-mouse (Jackson) specific IgG-HRP was added for 1 h at 37° C. Reaction development was performed using the TMB substrate solution. The commercial anti-Axl Mab 154 antibody is also used in parallel (data not shown). Coating controls are performed in presence of a goat anti-human IgG Fc polyclonal serum labelled with HRP (Jackson, ref 109-035-098) and/or in presence of a HRP-coupled anti-Histidine antibody (R and D Systems, ref: MAB050H). No non specific binding is observed in absence of primary antibody (diluant). Results for the 110D7 are represented in FIGS. 2A, 2B and 2C, respectively. Results for the 1003A2 are represented in FIGS. 2D, 2E and 2F, respectively. Results for the 1024G11 are represented in FIGS. 2G, 2H and 2I, respectively.
In general terms: An ELISA detects its analyte on a solid surface through an enzyme-linked reagent.

Assay [2] deals with T2, recombinant human Dtk-Fc protein (R and D Systems, cat N° 859-DK) (human, UniProt Q06418 41-428).
T2 construct: Bought construct; also called rhDtk-Fc; rhDtk; not shown: Fc portion of the bought fusion
T2 sequence (looked up): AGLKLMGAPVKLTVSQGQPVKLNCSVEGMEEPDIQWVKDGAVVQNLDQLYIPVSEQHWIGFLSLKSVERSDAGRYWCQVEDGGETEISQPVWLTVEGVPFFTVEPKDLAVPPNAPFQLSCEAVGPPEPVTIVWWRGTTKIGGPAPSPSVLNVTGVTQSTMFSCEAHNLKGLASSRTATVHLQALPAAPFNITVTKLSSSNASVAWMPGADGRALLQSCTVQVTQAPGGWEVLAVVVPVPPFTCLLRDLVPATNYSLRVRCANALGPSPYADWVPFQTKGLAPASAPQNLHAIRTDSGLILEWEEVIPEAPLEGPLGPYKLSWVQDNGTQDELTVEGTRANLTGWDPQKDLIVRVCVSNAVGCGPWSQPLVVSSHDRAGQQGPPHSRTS
The assay can be described thus: ELISA on coated protein. The procedure: as §1

Assay [3] has as its target T3, recombinant mouse Axl-Fc protein (R and D Systems, cat N° 854-AX/CF) (mouse, UniProt Q00993 19-445).
T3 construct: extracellular domain; Bought construct; also called rmAxl-Fc; murine Axl ECD domain; not shown: Fc portion of the bought fusion (detected by anti-human IgG Fc)
T3 sequence (looked up): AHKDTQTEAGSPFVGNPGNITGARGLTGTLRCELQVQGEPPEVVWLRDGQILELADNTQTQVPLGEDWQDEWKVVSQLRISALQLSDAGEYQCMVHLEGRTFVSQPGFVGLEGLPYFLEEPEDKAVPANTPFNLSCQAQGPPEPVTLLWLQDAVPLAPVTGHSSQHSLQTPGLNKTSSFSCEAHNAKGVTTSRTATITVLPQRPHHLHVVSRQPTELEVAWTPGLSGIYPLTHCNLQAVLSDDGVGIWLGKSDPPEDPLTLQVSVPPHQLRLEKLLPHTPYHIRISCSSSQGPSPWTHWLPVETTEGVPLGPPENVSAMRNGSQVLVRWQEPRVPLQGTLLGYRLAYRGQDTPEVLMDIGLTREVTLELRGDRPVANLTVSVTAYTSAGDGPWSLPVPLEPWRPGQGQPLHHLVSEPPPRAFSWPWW
The assay can be described thus: ELISA on coated rmAxl-Fc. How it is done: Briefly, the recombinant mouse Axl-Fc (R and D Systems, cat N° 854-AX/CF) proteins were coated overnight at 4° C. to Immulon II 96-well plates and, after a 1 h blocking step with a 0.5% gelatine solution, the 110D7, 1003A2, 1024G11, purified antibodies, respectively, were added for an additional 1 h at 37° C. at starting concentration of 5 μg/ml (3.33 10⁻⁸ M). Then ½ serial dilutions were done over 12 columns. Then plates were washed and a goat anti-mouse (Jackson) specific IgG HRP was added for 1 h at 37° C. Reaction development was performed using the TMB substrate solution. The commercial mouse anti-Axl Mab 154 antibody is also used in parallel. Coating controls are performed in presence of a goat anti-human IgG Fc polyclonal serum coupled with HRP (Jackson, ref 109-035-098) and in presence of a HRP-coupled anti-Histidine antibody (R and D Systems, ref: MAB050H). No specific binding is observed in absence of primary antibody (diluant).

B1: 110D7 anti-Axl monoclonal antibody (antibody, V domains shown)
VH: EVKLVESGGGLVQPGGSLKLSCATSGFTFSDYYMYWVRQTPEKRLEWVAYISNGGGSTYYPDTVKGRFTMSRDNAKNTLYLQMSRLKSEDTAMYYCARLSFYAMDYWGQGTSVTVSS
VL: DIVMTQSHKFMSTSVGDRVSITCKASQDVTTAVAWYQQKPGQSPKLLIYWASTRHTGVPDRFTGSGSGTDYTLTISSVQAEDLALYYCQQHYRIPFTFGSGTKLEIK
notes: Murine monoclonal antibody purified from a hybridoma; a mIgG1 isotype control (9G4) is used beside it; also called m110D7; monoclonal antibody 110D7 derived from the hybridoma I-3959
As for B1, the binding result in assay [1] and in assay [2] was “no binding” each time.

B2: 1024G11 anti-Axl monoclonal antibody (antibody, V domains shown)
VH: EVKLVESGGGLVQPGGSLNLSCAASGFTFSSYSMSWVRQTPEKRLEWVAFISNGGGRTYYPDTVKGRFTFSRDNARNTLYLQMSSLNSEDTAMYFCARGTTESYYAMDYWGQGTSVTVSS
VL: DIVMTQSHKFMSTSVGDRVSITCKASQDVITAVAWYQQKPGQSPKLLIYWASTRHTGVPDRFTGSGSGTDYTLTISSVQAEDLALYFCQQHLSTPLTFGAGTKLELK
notes: Murine monoclonal antibody purified from a hybridoma; a mIgG1 isotype control (9G4) is used beside it; also called monoclonal antibody 1024G11 derived from the hybridoma I-4501
Regarding B2, the binding result in assay [3], in assay [1] and in assay [2] was “no binding” throughout.

B3: 1003A2 anti-Axl monoclonal antibody (antibody, V domains shown)
VH: EVKLVESGGGLVQPGGSLKLSCAASGFTFNSYSMSWVRQTPEKRLEWVAYISNGGGRTYYPDTIKGRFTLSRDNDRNTLYLQMSSLKSEDTAMYYCARGTTESYYALDYWGQGTSVTVSS
VL: DIVMTQSHKFMSTSLGDRISITCKASQDVITAVAWYQQKPGQSPKLLIYWASTRHTGVPDRFTGSGSGTDYNLTISSVQAEDLALYYCQQHFSTPLTFGAGTKLELK
notes: Murine monoclonal antibody purified from a hybridoma; a mIgG1 isotype control (9G4) is used beside it; also called monoclonal antibody 1003A2 derived from the hybridoma I-4499
Consider B3, for which the binding result in assay [3], in assay [1] and in assay [2] was “no binding” each time.
